Measurements published in patent US12723100 (CSPC MEGALITH BIOPHARMACEUTICAL, dated 2026).
Numbering of substitutions follows the chain as printed.

T1: full-length human Nectin-4 on cells (human, UniProt Q96NY8 32-510)
T1 construct: the cell is named under assay; also called CHO-Nectin-4 cells; Nectin-4-CHO
T1 sequence: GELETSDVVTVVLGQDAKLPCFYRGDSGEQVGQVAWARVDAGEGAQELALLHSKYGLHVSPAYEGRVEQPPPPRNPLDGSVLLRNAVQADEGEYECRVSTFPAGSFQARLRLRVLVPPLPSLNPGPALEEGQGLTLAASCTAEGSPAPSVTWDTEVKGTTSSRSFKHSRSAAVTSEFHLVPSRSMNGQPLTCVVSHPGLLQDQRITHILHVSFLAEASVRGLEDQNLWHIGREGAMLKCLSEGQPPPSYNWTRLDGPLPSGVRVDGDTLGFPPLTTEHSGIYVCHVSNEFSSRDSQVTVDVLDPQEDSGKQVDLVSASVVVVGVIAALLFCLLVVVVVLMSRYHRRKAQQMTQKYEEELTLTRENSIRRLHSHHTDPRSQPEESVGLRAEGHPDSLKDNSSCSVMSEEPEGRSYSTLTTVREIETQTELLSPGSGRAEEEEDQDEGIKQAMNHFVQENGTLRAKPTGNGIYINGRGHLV

T2: recombinant human Nectin4-His protein (human, UniProt Q96NY8 32-349)
T2 construct: Analyte of the SPR assay; May be the same protein as m12; also called human Nectin-4 ECD; not shown: His tag
T2 sequence: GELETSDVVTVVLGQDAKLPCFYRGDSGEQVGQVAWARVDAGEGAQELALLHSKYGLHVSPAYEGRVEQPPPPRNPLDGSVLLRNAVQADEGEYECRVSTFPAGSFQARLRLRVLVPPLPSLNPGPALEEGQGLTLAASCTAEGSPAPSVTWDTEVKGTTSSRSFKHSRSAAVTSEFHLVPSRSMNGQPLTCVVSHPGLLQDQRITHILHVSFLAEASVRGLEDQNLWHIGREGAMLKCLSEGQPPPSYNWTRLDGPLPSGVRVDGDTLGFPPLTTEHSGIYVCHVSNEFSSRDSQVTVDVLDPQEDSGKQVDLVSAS

T3: human Nectin 2 (ACROBiosystems, Catalog no: PV2-H52E2) (human, UniProt Q92692 32-360)
T3 construct: extracellular domain
T3 sequence (looked up): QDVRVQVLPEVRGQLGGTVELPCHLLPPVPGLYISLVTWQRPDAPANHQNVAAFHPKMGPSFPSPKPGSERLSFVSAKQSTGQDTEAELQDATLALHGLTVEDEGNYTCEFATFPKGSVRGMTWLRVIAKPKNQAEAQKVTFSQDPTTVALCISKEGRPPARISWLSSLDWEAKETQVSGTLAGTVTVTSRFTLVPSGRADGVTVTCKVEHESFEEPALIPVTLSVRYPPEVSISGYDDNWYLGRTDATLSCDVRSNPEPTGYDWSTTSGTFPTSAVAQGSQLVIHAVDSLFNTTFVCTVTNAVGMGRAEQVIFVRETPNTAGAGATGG

T4: human Nectin-1 with His tag (ACROBiosystems, catalog number PV1-H5223) (human, UniProt Q15223 31-355, biotinylated in Example 3 (sites not given))
T4 construct: Bought protein; also called biotinylated human Nectin-1
T4 sequence: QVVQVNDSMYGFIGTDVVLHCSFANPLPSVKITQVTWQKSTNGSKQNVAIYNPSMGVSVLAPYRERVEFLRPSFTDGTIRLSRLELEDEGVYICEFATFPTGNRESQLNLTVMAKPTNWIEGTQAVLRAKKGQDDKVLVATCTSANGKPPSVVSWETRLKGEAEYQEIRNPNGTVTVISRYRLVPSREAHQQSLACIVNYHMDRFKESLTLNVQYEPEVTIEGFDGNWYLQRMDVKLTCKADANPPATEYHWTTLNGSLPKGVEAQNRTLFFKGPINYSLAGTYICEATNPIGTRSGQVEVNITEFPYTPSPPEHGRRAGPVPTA

B1: N4_mAb 5 (antibody, human IgG1, V domains shown)
VH: EVQLQQSGPDLVKPGASVKISCKASGYSFTGHYMHWVKQSHGKSLEWIGRVNPNNGGSSYNQKFKDKAILTVDKSSTTAYMELRSLTSEDSAVYYCARDPLGGSYGFAYWGQGTLVTVSA
VL: DIVLTQSPASLAVSLGQRATISCRASQSVTTSSYSYMHWYQQKPGQPPKLLIKYASNLESGVPARFSGSGSGTDFTLNIHPVEEEDTATYYCQHSWEIPYTFGGGTKLEMK
notes: Tested as chimera (human IgG1/kappa constants); not shown: human IgG1 constant region (Uniprot P01857); human Kappa light chain constant region (UniProt P01834)
B2: N4_mAb 3 (antibody, human IgG1, V domains shown)
VH: EVQLQQSGAELVKPGASVKLSCTVSGFNIKDTYMHWVKQRPEQGLEWIGRIDPANGNTKYDPKFQGKATIIADKASNTAYLQLSSLTSEDAAVYYCAHYYGSSYFAMDCWGQGTSVTVSS
VL: DIVMTQSHKFMSTSVGDRVSITCKASQDVSTAVAWYQQKPGQSPKLLIYWASTRHTGVPDRFTGSGSGTDYTLTISSVQTEDLALYYCQQHYSTPLTFGAGTKLELK
notes: as for B1
B3: N4_mAb 1 (antibody, human IgG1, V domains shown)
VH: QVQLKQSGPGLVQPSQSLSITCTVSGFSLTNYGVNWVRQPPGKGLEWLGVIWSGGSTDYNAAFISRLSISKDISKSQVFFKMNSLQADDTAKYYCAREGYDGYAMDYWGQGTSVTVSS
VL: DIQMTQSPASLSVSVGETVTITCRASENIFSSLAWYQQKQGKSPQLLVYGATNLADGVPSRFSGSGSGTQYSLKINSLQSEDFGTYWCQHFWGNPWTFGGGTKLEIK
notes: Tested as chimera (murine variable regions, human IgG1/kappa constants); not shown: human IgG1 constant region (Uniprot P01857); human Kappa light chain constant region (UniProt P01834)
B4: N4_mAb 6 (antibody, human IgG1, V domains shown)
VH: QVQLQQSGPELVKPGASVRISCKASGYTFTTYYIHWVKQRPGQGLEWIGWIYPGNVNTKYTENFKDKATLTADKSSSTAYMQLSSLTSEDSAVYFCARGLYYFDFWGQGTTLTVSS
VL: SIVMTQTPKFLLVSAGDRVTITCKASQSVNNDVAWYQQKPGQSPKLLIYYASNRDTGVPDRFTGSGFGTDFTFTISSVQAEDLAVYFCQQDYSSPYTFGGGTKLEIK
notes: as for B3
B5: N4_mAb 8 (antibody, human IgG1, V domains shown)
VH: B4 VH with E10V, T31S, T61N, K65R, A79S, L100I, F105Y
VL: B4 VL with S1I, Q38E, F67Y, S77T, Q89H, Y96F, G100S
notes: as for B3
B6: N4_mAb 7 (antibody, human IgG1, V domains shown)
VH: QVQLQQSGPELVKPGASVKMSCKASGYTFTTYYIHWVKQRPGQGLEWIGWIYPGNAGIKSNEKFKGKTTLTADKSSSTAYMLLSSLTSEDSAIYFCARGVYFFDYWGQGTTLTVSS
VL: B4 VL with A34S, Y36F, D55Y, T63S, F67Y, S76T, S77T
notes: as for B3
B7: N4_mAb 2 (antibody, human IgG1, V domains shown)
VH: QVQLKQSGPNLVQPSQSLSITCTVSGFSLTTYGAHWVRQSPGKGLEWLGVIWRGGSTDYNAAFMSRLSITKDNSKSQVFFKMNSLQADDTAIYYCAKIGYDGYAMDNWGQGTSVTVSS
VL: DFQVTQSPASLSASVGETVTITCRTSENIHNYLAWYQQKQGKSPQLLVYNAKTLADGVPSRFSGSGSGTQYSLKINSLQPEDFGTYYCQHFWSSPWTFGGGTKLEIK
notes: as for B1
B8: N4_mAb 4 (antibody, human IgG1, V domains shown)
VH: DVQLQESGPDLVKPSQSLSLTCTVTGYSITSAYNWHWIRQFPGNKLEWMGYIHYSGRTNYNPSLKSRISITRDTSKNQFFLQLNSLTTEDTATYYCARWITTATGWYLDVWGAGTTVTVSS
VL: not shown
notes: as for B1

Molecular target: T1, full-length human Nectin-4 on cells
Test: flow cytometry, SKBR3 cells (endogenous Nectin-4)
Method: The binding specificity of the disclosed anti-Nectin-4 antibodies was also assessed by FACS. Briefly, CHO-Nectin-4 cells (vs. parental CHO cells) or endogenous cell lines expressing Nectin-4 (T-47D) were incubated with dilutions of purified recombinant antibodies. Cells were washed, and specific antibody binding was detected with Alexa 647 labeled goat anti-mouse IgG antibody. Flow cytometric analysis was performed on a flow cytometry instrument (Intellicyte, IQue plus, Sartorius).
N4_mAb 1 to N4_mAb 8 antibodies bind to CHO-Nectin-4 cells and SKBR3 cells by FACS.

| EC50 [pM] | Binder |
| --- | --- |
| 520 | B1 |
| 45000 | B2 |
| 240 | B3 |
| 40 | B4 |
| 50 | B5 |
| 50 | B6 |
| 1800 | B7 |
| 1800 | B8 |

Molecular target: T2, recombinant human Nectin4-His protein
Test: SPR (BIAcore 3000), antibody captured by anti-human IgG, Nectin4-His as analyte
Method: The binding kinetics of the disclosed anti-Nectin-4-specific antibodies to recombinant human Nectin-4 was determined by Surface plasmon resonance (SPR) using BIAcore 3000 system. Briefly, CM5 chip was immobilized via amine coupling chemistry with anti-human IgG antibody (GE, Cat No BR-1000-12, lot 10283568) following the application wizards on Flow cell 4. Flow cell 3 remained unmodified to serve as a reference cell for subtraction of systematic instrument noise and drift. Run Fc4-3 detection with double blank (Fc3 and blank analyte buffer). Antibody samples were diluted to 1 ug/mL in HBS-EP and injected at a flow rate of 10 ul/min for 1 minute. Analyte recombinant human Nectin4-His protein was diluted from 10 to 0.156 nM ([…], 5 points to 0 nM in HBS-EP buffer) and injected at 50 uL/minute for 2 minutes, followed by 6 minutes dissociation. All the analyses were performed with double blanks, Fc3 and blank analyte buffer, to reduce the background. Data were analyzed using BIAevaluation software (version 4.1.1) by 1:1 binding with mass transfer model with global fit to determine apparent binding kinetics.

| Kd [pM] | Binder |
| --- | --- |
| 1580 | B1 |
| 17200 | B2 |
| 1250 | B3 |
| 392 | B4 |
| 375 | B5 |
| 390 | B6 |
| 884 | B7 |
| 1260 | B8 |

Molecular target: T3, human Nectin 2 (ACROBiosystems, Catalog …)
Test: ELISA or Gator binding assay

| binding result | Binder |
| --- | --- |
| no binding | B1 |
| no binding | B2 |
| no binding | B3 |
| no binding | B4 |
| no binding | B5 |
| no binding | B6 |
| no binding | B7 |
| no binding | B8 |

Molecular target: T4, human Nectin-1 with His tag …
Test: ELISA or Gator binding assay

| binding result | Binder |
| --- | --- |
| no binding | B1 |
| no binding | B2 |
| no binding | B3 |
| no binding | B4 |
| no binding | B5 |
| no binding | B6 |
| no binding | B7 |
| no binding | B8 |

Molecular target: T1, full-length human Nectin-4 on cells
Test: flow cytometry competition on CHO-Nectin-4 cells; competitor biotinylated human TIGIT
Method: The ability of disclosed Nectin4-specific antibodies to block TIGIT binding to CHO-Nectin-4 cells was assessed by FACS. Briefly, CHO-Nectin-4 cells were incubated with dilutions of the disclosed purified recombinant antibodies. Then, biotinylated human TIGIT protein (SinoBiologic, catalog: 10917-H08H-B, lot: LC13AP0902) was added to the plate. After 30-minute incubation, cells were washed, followed by adding Streptavidin Alexa 647 (1:1000) to the samples. After a 30 minute incubation, the samples were analyzed on a flow cytometry instrument (Intellicyte, IQue plus, Sartorius) for TIGIT blocking activity. The positive control antibody used in this blocking assay is PC2, a Nectin-4 antibody with known blocking activity.

| EC50 [pM] | Binder |
| --- | --- |
| 3110 | B1 |
| 940 | B2 |
| 910 | B3 |
| 310 | B4 |
| 1370 | B5 |
| 750 | B6 |
| 3040 | B7 |
